Changes are numbered by the printed parent chain. In names and notes the source's numbering stands.
T1: PUF4 RNA-binding domain (Saccharomyces cerevisiae, UniProt P25339 537-888)
T1 sequence: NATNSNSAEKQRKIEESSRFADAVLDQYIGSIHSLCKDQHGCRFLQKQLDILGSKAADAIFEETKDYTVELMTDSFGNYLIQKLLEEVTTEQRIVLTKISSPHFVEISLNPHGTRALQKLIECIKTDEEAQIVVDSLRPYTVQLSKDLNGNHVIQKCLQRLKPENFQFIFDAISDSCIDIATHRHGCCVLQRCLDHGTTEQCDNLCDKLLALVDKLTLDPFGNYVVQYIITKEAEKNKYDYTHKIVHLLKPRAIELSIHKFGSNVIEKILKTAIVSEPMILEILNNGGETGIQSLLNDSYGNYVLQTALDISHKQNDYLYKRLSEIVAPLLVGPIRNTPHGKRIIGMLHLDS

B1: Ic_S4_P5E.1_K5.1_C5.1_H5.1_A5.1_[T5C]_[T6A]_F5.1_[T8A]_[T9C]_[A10T]_T5.1 (ssRNA)
RNA: UUUGACAACUGAUCGUUCUUUCUUGUACAAACUUUCUUUCUCGAUCAGUUGUCUUU
B2: Ic_S4_P5E.1_K5.1_C5.1_H5.1_A5.1_[T5A]_[A7C]_F5.1_[T8A]_[A10C]_T5.1 (ssRNA)
RNA: B1 RNA with C28A, A29U, A30C, C32U, U33C
B3: Ic_S4_P5E.1_K5.1_C5.1_H5.1_A5.1_[T5G]_[T6C]_[A7T]_F5.1_[T8A]_[A10T]_T5.1 (ssRNA)
RNA: B1 RNA with C28G, A29C, A30U, C32U
B4: Ic_S4_P5E.1_K5.1_C5.1_H5.1_A5.1_[A7C]_F5.1_[T8G]_[A10T]_T5.1 (ssRNA)
RNA: B1 RNA with C28U, A29U, A30C, A31G, C32U
B5: Ic_S4_P5E.1_K5.1_C5.1_H5.1_A5.1_[T6C]_[A7T]_F5.1_[T8C]_[A10G]_T5.1 (ssRNA)
RNA: B1 RNA with C28U, A29C, A30U, A31C, C32U, U33G
B6: Ic_S4_P5E.1_K5.1_C5.1_H5.1_A5.1_[T6G]_[A7T]_F5.1_[T8G]_[T9C]_[A10C]_T5.1 (ssRNA)
RNA: B1 RNA with C28U, A29G, A30U, A31G, U33C
B7: Ic_S4_P5E.1_K5.1_C5.1_H5.1_A5.1_[T6C]_F5.1_[T9G]_[A10C]_T5.1 (ssRNA)
RNA: B1 RNA with C28U, A29C, A31U, C32G, U33C
B8: Ic_S4_P5E.1_K5.1_C5.1_H5.1_A5.1_[T6A]_F5.1_[T9G]_[A10G]_T5.1 (ssRNA)
RNA: B1 RNA with C28U, A31U, C32G, U33G
B9: Ic_S4_P5E.1_K5.1_C5.1_H5.1_A5.1_[T6G]_[A7C]_F5.1_[T8C]_[T9A]_[A10T]_T5.1 (ssRNA)
RNA: B1 RNA with C28U, A29G, A30C, A31C, C32A
B10: Ic_S4_P5E.1_K5.1_C5.1_H5.1_A5.1_[T5C]_[A7G]_F5.1_[T8C]_[T9G]_[A10C]_T5.1 (ssRNA)
RNA: B1 RNA with A29U, A30G, A31C, C32G, U33C
B11: Ic_S4_P5E.1_K5.1_C5.1_H5.1_A5.1_F5.1_[T8C]_[T9C]_[A10T]_T5.1 (ssRNA)
RNA: B1 RNA with C28U, A29U, A31C
B12: Ic_S4_P5E.1_K5.1_C5.1_H5.1_A5.1_[T5C]_[T6A]_[A7C]_F5.1_[T8A]_[A10G]_T5.1 (ssRNA)
RNA: B1 RNA with A30C, C32U, U33G
B13: Ic_S4_P5E.1_K5.1_C5.1_H5.1_A5.1_[T5C]_[A7G]_F5.1_[T8G]_T5.1 (ssRNA)
RNA: B1 RNA with A29U, A30G, A31G, C32U, U33A
B14: Ic_S4_P5E.1_K5.1_C5.1_H5.1_A5.1_[T5C]_[A7C]_F5.1_[T8A]_[T9C]_[A10G]_T5.1 (ssRNA)
RNA: B1 RNA with A29U, A30C, U33G
B15: Ic_S4_P5E.1_K5.1_C5.1_H5.1_A5.1_[T5C]_[T6A]_F5.1_[T8A]_[A10C]_T5.1 (ssRNA)
RNA: B1 RNA with C32U, U33C
B16: Ic_S4_P5E.1_K5.1_C5.1_H5.1_A5.1_[T5C]_[T6C]_F5.1_[T8C]_[T9A]_[A10T]_T5.1 (ssRNA)
RNA: B1 RNA with A29C, A31C, C32A
B17: Ic_S4_P5E.1_K5.1_C5.1_H5.1_A5.1_[T5C]_[T6C]_[A7G]_F5.1_[T8G]_[T9C]_[A10C]_T5.1 (ssRNA)
RNA: B1 RNA with A29C, A30G, A31G, U33C
B18: Ic_S4_P5E.1_K5.1_C5.1_H5.1_A5.1_[T5A]_F5.1_[T8A]_[T9C]_[A10T]_T5.1 (ssRNA)
RNA: B1 RNA with C28A, A29U
B19: Ic_S4_P5E.1_K5.1_C5.1_H5.1_A5.1_[T5C]_[T6A]_[A7G]_F5.1_[T9C]_[A10C]_T5.1 (ssRNA)
RNA: B1 RNA with A30G, A31U, U33C
B20: Ic_S4_P5E.1_K5.1_C5.1_H5.1_A5.1_[T5G]_[T6C]_[A7T]_F5.1_[T9A]_[A10C]_T5.1 (ssRNA)
RNA: B1 RNA with C28G, A29C, A30U, A31U, C32A, U33C
B21: Ic_S4_P5E.1_K5.1_C5.1_H5.1_A5.1_[T5C]_[T6A]_[A7T]_F5.1_[T8A]_[T9C]_[A10G]_T5.1 (ssRNA)
RNA: B1 RNA with A30U, U33G
B22: Ic_S4_P5E.1_K5.1_C5.1_H5.1_A5.1_[T5C]_[T6C]_[A7T]_F5.1_[T9A]_[A10G]_T5.1 (ssRNA)
RNA: B1 RNA with A29C, A30U, A31U, C32A, U33G
B23: Ic_S4_P5E.1_K5.1_C5.1_H5.1_A5.1_[T5A]_[A7C]_F5.1_[T8A]_[T9G]_[A10C]_T5.1 (ssRNA)
RNA: B1 RNA with C28A, A29U, A30C, C32G, U33C
B24: Ic_S4_P5E.1_K5.1_C5.1_H5.1_A5.1_[T6G]_[A7C]_F5.1_[T8C]_[T9C]_[A10T]_T5.1 (ssRNA)
RNA: B1 RNA with C28U, A29G, A30C, A31C

Biological target: T1, PUF4 RNA-binding domain
Test: Mg; RNA-MaP; 20 mM Na-HEPES pH 7.4, 30 mM KOAc, 0.75 mM MgCl2, 0.1% Tween-20, 5% glycerol, 0.1 mg/mL BSA, 2 mM DTT; 25 C; 0.0125-409.6 nM protein
Settings: tags: N-His6-TEV cleaved; C-SNAP kept, Cy3B-labelled; label: tethered on chip by stalled RNA polymerase

Row | Binder | Kd [nM]
1 | B1 | 80.6
2 | B2 | 432
3 | B3 | 56.6
4 | B4 | 59.5
5 | B5 | 19.1
6 | B6 | 67.2
7 | B7 | 14.6
8 | B8 | 16.6
9 | B9 | 56.4
10 | B10 | 1350
11 | B11 | 160
12 | B12 | 130
13 | B13 | 34
14 | B14 | > 2300
15 | B15 | 26.1
16 | B16 | 158
17 | B17 | > 2300
18 | B18 | 561
19 | B19 | 13.2
20 | B20 | 24.4
21 | B21 | 14.5
22 | B22 | 3.61
23 | B23 | 1930
24 | B24 | 527
25 | UCUCUUUGUAUGUUUUCUCUU (ssRNA) [Ic_S1_P4E.1_K4.1_C4.1_H4.1_A4.1_[A6G]_F4.1_[A9T]_T4.1] | 40
26 | UCUCUUUGUAUUUUUUCUCUU (ssRNA) [Ib_S1_P4E.1_K4.1_C4.1_H4.1_A4.1_[A6T]_F4.1_[A9T]_T4.1] | 20.9
27 | UCUCUUUGUAUUUUCUCUCUU (ssRNA) [Ic_S1_P4E.1_K4.1_C4.1_H4.1_A4.1_[A6T]_F4.1_[A9C]_T4.1] | 36
28 | UCUCUUUGUAUCUUUUCUCUU (ssRNA) [Ib_S1_P4E.1_K4.1_C4.1_H4.1_A4.1_[A6C]_F4.1_[A9T]_T4.1] | 20.9
29 | UCUCUUUGUAUAGUGUCUCUU (ssRNA) [Ib_S1_P4E.1_K4.1_C4.1_H4.1_A4.1_[T7G]_F4.1_[A9G]_T4.1] | 13

— PMC9352680, “A comprehensive thermodynamic model for RNA binding by the Saccharomyces cerevisiae Pumilio protein PUF4”
